The results in this text go back to patent US20110218157A1.

One assay deals with FcγIIa (R131 allele) (UniProt P12318). The assay can be described thus: reverse ELISA: PAP-IC without peptide on FcγIIa (R131)-coated plate.
A further assay addresses FcγIIb (UniProt P31994). The assay can be described thus: reverse ELISA: PAP-IC without peptide on FcγIIb-coated plate.
The target in assay [1] is recombinant TNF-α (Sigma-Aldrich). As to the kind of experiment: reverse ELISA: PAP-IC without peptide on TNF-α-coated plate.
recombinant TNF-α (Sigma-Aldrich), sequence (P01375 77-233): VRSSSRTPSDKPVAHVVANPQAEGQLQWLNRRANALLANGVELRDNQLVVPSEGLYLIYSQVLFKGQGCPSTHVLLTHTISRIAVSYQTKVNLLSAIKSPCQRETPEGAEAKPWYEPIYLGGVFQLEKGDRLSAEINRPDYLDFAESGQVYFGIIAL
The target of another assay is FcγIIIa (UniProt P08637). As to the kind of experiment: reverse ELISA: PAP-IC without peptide on FcγIIIa-coated plate.

As for “peroxidase-rabbit anti-peroxidase IgG immune complex (PAP complex) (from UniProt P00433 31-338)”, the OD405 worked out at 1.6 OD405 with FcγIIa (R131 allele), 1.39 OD405 with FcγIIb, 3.18 OD405 in assay [1] and 1.59 OD405 in the assay with FcγIIIa.
